{"source": "the supplement of paper PMC9170038"}
{"system": "MS2 coat protein", "test": "apparent KD of MS2 coat protein, switch OFF state (with FMN for OFF switches, without FMN for ON switches); designed switch direction (-1 OFF switch, 1 ON switch): -1; higher = weaker reporter binding", "settings": "FMN input: 0 or 200 uM; Eterna round: R93 (includes R88 designs)", "method_in_brief": "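Designed RNA switches were transcribed on-chip from Illumina sequencing clusters and titrated with SNAP-549-labelled MS2 coat protein in twofold steps from 0.7 or 1.5 nM up to 3 µM. Each step lasted 0.8–1.5 h at first and 10–20 min by the end, in 100 mM Tris-HCl pH 7.5, 80 mM KCl and 4 mM MgCl2, without or with constant ligand. Apparent KD is the median, for each design, of fits to normalised cluster binding curves.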", "units": {"apparent KD of MS2 coat protein": "nM"}}
{"sequence": "ACUAACGGAGGAUAUACUAACAAACCUCAAACAUACAUCAAACAUGAGGAUCACCCAUGUAGAAGGCCGAAACU [JR_Exc002_Sub004]", "apparent KD of MS2 coat protein": 52.8}
{"sequence": "CCUAUGUCAGGAUAUCAGUAGUAAAAAAAAAAAAUUACUACUGAGAAGGGACAUGAGGAUCACCCAUGUUCAAA [EX4 313: Super Stable 13]", "apparent KD of MS2 coat protein": 66.4}
{"sequence": "GAAUGAUGAGGAUAUACAUGAGGAUCACCCAUGUGUAAAAAUAAAUACACAAAAGAAAGUAGAAGGCAUCAAAG [Mat - Exclusion 3 - Mayanna mod - D120]", "apparent KD of MS2 coat protein": 99}
{"sequence": "AACAGUACAGGAUAUACAUGAGGAUCACCCAUGUGAAAAUUAAGUGGAGAACCACAAUGUAGAAGGGUACUGGA [Mat - Exclusion 3 - Eli mod - D48]", "apparent KD of MS2 coat protein": 57.3}
{"sequence": "AAAACGCUAGGAUAUACAAAAAAAAAGGGAAAAAAAAAGGGACAUGAGGAUCACCCAUGUAGAAGGAGCAAAAA [Diamond 87]", "apparent KD of MS2 coat protein": 108}
{"sequence": "CUCUAGUUAGGAUAUCGAAGAAAAGAAAAGAAAGAAAAGAACGAGAAGGAACAUGAGGAUCACCCAUGUAAGAA [EteRNA is fun!]", "apparent KD of MS2 coat protein": 28}
{"sequence": "AUGUACCUAGGAUAUACAUGAGGAUCACCCAUGUAUUGGGAGCAAUCCAGUUAAUAUUGUAGAAGGAGGUGAAA [JR_Exc003_Sub317]", "apparent KD of MS2 coat protein": 65}
{"sequence": "AGCUAGACAGGAUAUACGUAAAUGUCGAAAGACGUAUAGGGACAUGAGGAUCACCCAUGUAGAAGGGUCUAGCA [Diamond 100]", "apparent KD of MS2 coat protein": 39.6}
{"sequence": "AAGAACUGAGGAUAUACAUGAAAGAAAGAAAAGAAAAGAAAACAUGAGGAUCACCCAUGUAGAAGGCAGAAGAA [EteRNA is fun!]", "apparent KD of MS2 coat protein": 14.4}
{"sequence": "AAAAGGAUAGGAUAUACAUGAGGAUCACCCAUGUGAAUAAAUAAAAGAAAUAAAGAAAGUAGAAGGGUCAAGAA", "apparent KD of MS2 coat protein": 22}
{"sequence": "CCUGUGUGAGGAUAUGGUAAAAAAAAAAAAAAAUAGCUCCUCCAGAAGGCACAUGAGGAUCACCCAUGUCGUGG [Jolly's Folly 16 - Jieux - Exclusion 4]", "apparent KD of MS2 coat protein": 73.9}
{"sequence": "AAAAAACAUGAGGAUCACCCAUGUGAGGAUAUGUACGAAAUAAAUAAAAAAUAAAAGUACAGAAGGCACAAAAA [Mat - Exclusion 1 - Eli mod - D5]", "apparent KD of MS2 coat protein": 32.4}
{"sequence": "GUCGUGUGAGGAUAUGGAAAGUAGAAGUGGCGGUCGAAAACCUAGAAGGCACAUGAGGAUCACCCAUGUAAGAG [JR_Exc004_Sub1708]", "apparent KD of MS2 coat protein": 54.3}
{"sequence": "AAUAACCGAGGAUAUACAUGAGGAUCACCCAUGUGAACAUCCACGAAAAGGAUUCUGUGUAGAAGGCGGAAACC [Soquar]", "apparent KD of MS2 coat protein": 13.4}
{"sequence": "UCACACCUAGGAUAUACAUGAGGAUCACCCAUGUGGCACUCCGCAGGCAGUGUUCCCAGUAGAAGGAGGACACG [Ricere]", "apparent KD of MS2 coat protein": 22.4}
{"sequence": "AAAAAACAUGAGGAUCACCCAUGUCAGGAUAUCCGGUUCAAAAAAAAAAAAAGGCGUUGGAGAAGGGACAUUCC [Chica Displaced 10 - Jieux - Exclusion 1]", "apparent KD of MS2 coat protein": 36.4}
{"sequence": "AAAGAGUCAGGAUAUUCGUAUAGAGUAGCGCGACUCUAUACGAAGAAGGGACAUGAGGAUCACCCAUGUAAAAA [Ecls4-I]", "apparent KD of MS2 coat protein": 51.1}
{"sequence": "AAGAAUGAAGGAUAUACAUGAGGAUCACCCAUGUAAAAGAAAGAGGGAAAAGAGAAAAGUAGAAGGUCAAAGAA [Ptolemy XI Alexander II]", "apparent KD of MS2 coat protein": 20.4}
{"sequence": "AAAACGUGAGGAUAUGCACCAAAAAAGGUUUUUCGGGUACGACAUGAGGAUCACCCAUGUAGAAGGCACGAAAA [Frodo Flailing 14 - Jieux - Exclusion 2]", "apparent KD of MS2 coat protein": 14.1}
{"sequence": "AAGGGACAUGAGGAUCACCCAUGUGAGGAUAUGACGUAAAGAAAGAAAGAAGAAAUCGUCAGAAGGCACACCAA [Mat - Exclusion 1 - Eli mod - D70]", "apparent KD of MS2 coat protein": 118}
{"sequence": "UAGAAGGUAGGAUAUACUUGGGAAACUAAUGCAAAGAUAUAACAUGAGGAUCACCCAUGUAGAAGGGCCAGUAA [JR_Exc002_Sub018]", "apparent KD of MS2 coat protein": 97.9}
{"sequence": "ACCUUACAUGAGGAUCACCCAUGUUAGGAUAUCUCGCUCUCGCAGUCACAGCGCAAGCAGAGAAGGGACACGGG [Maretien]", "apparent KD of MS2 coat protein": 36.6}
{"sequence": "AAUAUGUUAGGAUAUGCUGCUCGUCACAAAAGUGAUGAGUAGCAGAAGGAACAUGAGGAUCACCCAUGUAAAGA [JL eternac mod 12]", "apparent KD of MS2 coat protein": 39}
{"sequence": "AAAACGGUAGGAUAUACAAUUGGGAACUAGACCGAAAAACCACAUGAGGAUCACCCAUGUAGAAGGGCCAAAAA [Ex2 Malc#12]", "apparent KD of MS2 coat protein": 77.6}
{"sequence": "AAGAAGUCAGGAUAUGCCAGAGAUCAAGAAAGUGACGAGUAGCAGAAGGGACAUGAGGAUCACCCAUGUAAAGA [Opal 8]", "apparent KD of MS2 coat protein": 36.9}
{"sequence": "AAAAAGCGAGGAUAUACAUGAGGAUCACCCAUGUCAAAAAAAUAGAAAAAAAUAAAAAGUAGAAGGCGCAAAAA [Ex 3 #1]", "apparent KD of MS2 coat protein": 63.6}
{"sequence": "GGUUGGCGAGGAUAUACAUGAGGAUCACCCAUGUGAGAGAAAAAAGUGAGAAUGAAAAGUAGAAGGCGCUGACG [salish99-ex3-35]", "apparent KD of MS2 coat protein": 215}
{"sequence": "AGUCAUACAGGAUAUACAUGAGGAUCACCCAUGUUUAUCCUAAAAAGGUGAUCCUCAUGUAGAAGGGUAUGACA [EX3 210: Super Stable 10]", "apparent KD of MS2 coat protein": 16.6}
{"sequence": "AACAUGUCAGGAUAUGCAAAAGGAGACUGACACGCGAGUGAGCAGAAGGGACAUGAGGAUCACCCAUGUUCAAA [Mat - Mod of Meechl]", "apparent KD of MS2 coat protein": 15.6}
{"sequence": "AGCAGUACAGGAUAUACAUGAGGAUCACCCAUGUGAAAAAAAAGUGGCGUACCACAAAGUAGAAGGGUACUGCA [Mat - Exclusion 3 - JL mod - D32]", "apparent KD of MS2 coat protein": 108}
{"sequence": "GAUCCACAUGAGGAUCACCCAUGUAAGGAUAUUUAAAACCGGAGGAAACCCUCCGAAGAAAGAAGGUACAAAAC [Atceabi]", "apparent KD of MS2 coat protein": 14.5}
{"sequence": "AAGAAGAAAGGAUAUACAAGGAAGAAAGAAAAGAAAAGAAAACAUGAGGAUCACCCAUGUAGAAGGUUCUAGAA [EteRNA is fun!]", "apparent KD of MS2 coat protein": 9.5}
{"sequence": "AAAAAACAUGAGGAUCACCCAUGUAAGGAUAUGCUCGUGCGAAAGCACAAAAAAAAGAGCAGAAGGUACAAAAA [66%, Wbt, 38]", "apparent KD of MS2 coat protein": 32.3}
{"sequence": "GUGUACAGAGGAUAUACUGGAGCAUGGAAACAUGCAAGAUCACAUGAGGAUCACCCAUGUAGAAGGCUGUACAC [Ex2: 742]", "apparent KD of MS2 coat protein": 21.8}
{"sequence": "AAAAAGGCAGGAUAUACGAAACAGGGAAACCUGAAAGGGAAACAUGAGGAUCACCCAUGUAGAAGGGCCAAGAA [Clint Eastwood 64% 2]", "apparent KD of MS2 coat protein": 82}
{"sequence": "AAGAACGGAGGAUAUACAAAAUAAAAGAAAAGAAAGAAAGAACAUGAGGAUCACCCAUGUAGAAGGCCGAAGAA [Sehetepibre Sewesekhtawy]", "apparent KD of MS2 coat protein": 29}
{"sequence": "AACAGUACAGGAUAUACAUGAGGAUCACCCAUGUAAAAAUAAAAGGGAAUCUCAAAAAGUAGAAGGGUACUGGA [Moding Maslow revisited (73) 13]", "apparent KD of MS2 coat protein": 36.3}
{"sequence": "AAUACACAUGAGGAUCACCCAUGUAAGGAUAUCGAAAAAAAACUAAACAAAAAACAAACGAGAAGGUACAAAAA [Exclusion 1 design 4]", "apparent KD of MS2 coat protein": 23.9}
{"sequence": "AAGAAGCAAGGAUAUACAUGAAAGAAAGAAAAGAAAAGAAAACAUGAGGAUCACCCAUGUAGAAGGUGCUAGAA [EteRNA is fun!]", "apparent KD of MS2 coat protein": 47.8}
{"sequence": "AACAGUACAGGAUAUACAUGAGGAUCACCCAUGUGAAAAUUAAGUGGAAAACCACAAUGUAGAAGGGUACUGGA [Mat - Exclusion 3 - Eli mod - D49]", "apparent KD of MS2 coat protein": 219}
{"sequence": "AAAGGACGAGGAUAUACAUGAGGAUCACCCAUGUAAAAAACAUAAAAAAAGAACUUAUGUAGAAGGCGUCCAAA [69%, Moding Meechl, 3]", "apparent KD of MS2 coat protein": 399}
{"sequence": "UCCUGACAUGAGGAUCACCCAUGUCAGGAUAUCUACAGAACCUCAUGUAAAAAACUGUAGAGAAGGGAUAUGGG [Design 98: Pseudoknot H]", "apparent KD of MS2 coat protein": 17.5}
{"sequence": "AAAACGGCAGGAUAUACAGAUGAGAUCUCGACCGAAAAAAAACAUGAGGAUCACCCAUGUAGAAGGGCCAAAAA [Ex2 Malc#5]", "apparent KD of MS2 coat protein": 60.9}
{"sequence": "CCCUAGUCAGGAUAUACAAACAUGUCAAAAGACGUGAAAAAACAUGAGGAUCACCCAUGUAGAAGGGACUAGGG [Mat - Exclusion 2 - JL mod - D19]", "apparent KD of MS2 coat protein": 15.2}
{"sequence": "AAAACGGCAGGAUAUACAGAUGAGAACUCGACCGAAAAAAAACAUGAGGAUCACCCAUGUAGAAGGGCCAAAAA [Ex2 Malc#6]", "apparent KD of MS2 coat protein": 61.9}
